Experimental data as given in patent US20040185507A1.
Blank lines part the entries; values can stand above or below the substance they belong to.

How the values were obtained:
[1] = biological target: alpha V integrins (αvβ3 and αvβ5) on human cells (human) (UniProt P06756); assay: 125-I antibody binding on A375S2 and M21 cells, rounded summary
[2] = biological target: alpha V integrins (αvβ3 and αvβ5) on human cells (human) (UniProt P06756); assay: 125-I antibody saturation binding on A375S2 cells (n = 7)
[3] = biological target: alpha V integrins (αvβ3 and αvβ5) on human cells (human) (UniProt P06756); assay: flow cytometry on M21 cells; labeled CNTO95 20 µg/mL; no competitor (saline)
[4] = biological target: alpha V integrins (αvβ3 and αvβ5) on human cells (human) (UniProt P06756); assay: 125-I antibody saturation binding on A375S2 cells (n = 5)
[5] = biological target: alpha V integrins (αvβ3 and αvβ5) on human cells (human) (UniProt P06756); assay: cell-based or functional assay
[6] = biological target: alpha V integrins (αvβ3 and αvβ5) on human cells (human) (UniProt P06756); assay: flow cytometry on M21 cells; labeled CNTO95 2 µg/mL; competitor m7E3 IgG 20 µg/mL; parameters: % Positive: reference not given here
[7] = biological target: alpha V integrins (αvβ3 and αvβ5) on human cells (human) (UniProt P06756); assay: flow cytometry on M21 cells; labeled CNTO95 20 µg/mL; competitor anti-β3 (Chemicon) 20 µg/mL
[8] = biological target: alpha V integrins (αvβ3 and αvβ5) on human cells (human) (UniProt P06756); assay: flow cytometry on M21 cells; labeled CNTO95 2 µg/mL; competitor VNR139 (anti-αv) 20 µg/mL
[9] = biological target: alpha V integrins (αvβ3 and αvβ5) on human cells (human) (UniProt P06756); assay: flow cytometry on M21 cells; labeled CNTO95 20 µg/mL; competitor anti-β3 (AMAC) 20 µg/mL
[10] = biological target: alpha V integrins (αvβ3 and αvβ5) on human cells (human) (UniProt P06756); assay: flow cytometry on M21 cells; labeled CNTO95 20 µg/mL; competitor VNR139 (anti-αv) 20 µg/mL
[11] = biological target: alpha V integrins (αvβ3 and αvβ5) on human cells (human) (UniProt P06756); assay: 125-I antibody saturation binding on M21 cells (n = 4)
[12] = biological target: alpha V integrins (αvβ3 and αvβ5) on human cells (human) (UniProt P06756); assay: flow cytometry on M21 cells; labeled CNTO95 2 µg/mL; competitor P1F6 (anti-αvβ5) 20 µg/mL; parameters: % Positive: reference not given here
[13] = biological target: alpha V integrins (αvβ3 and αvβ5) on human cells (human) (UniProt P06756); assay: flow cytometry on M21 cells; labeled CNTO95 20 µg/mL; competitor P1F6 (anti-αvβ5) 20 µg/mL
[14] = biological target: alpha V integrins (αvβ3 and αvβ5) on human cells (human) (UniProt P06756); assay: flow cytometry on M21 cells; labeled CNTO95 2 µg/mL; no competitor (saline)
[15] = biological target: alpha V integrins (αvβ3 and αvβ5) on human cells (human) (UniProt P06756); assay: flow cytometry on M21 cells; labeled CNTO95 2 µg/mL; competitor anti-β3 (AMAC) 20 µg/mL
[16] = biological target: alpha V integrins (αvβ3 and αvβ5) on human cells (human) (UniProt P06756); assay: flow cytometry on M21 cells; labeled CNTO95 20 µg/mL; competitor m7E3 IgG 20 µg/mL
[17] = biological target: alpha V integrins (αvβ3 and αvβ5) on human cells (human) (UniProt P06756); assay: flow cytometry on M21 cells; labeled CNTO95 2 µg/mL; competitor anti-β3 (Chemicon) 20 µg/mL
[18] = biological target: alpha V integrins (αvβ3 and αvβ5) on human cells (human) (UniProt P06756); assay: 125-I antibody saturation binding on M21 cells (n = 8)
[19] = biological target: alpha V integrins (αvβ3 and αvβ5) on human cells (human) (UniProt P06756); assay: flow cytometry on M21 cells; labeled CNTO95 20 µg/mL; competitor LM609 (anti-αvβ3) 20 µg/mL
[20] = biological target: alpha V integrins (αvβ3 and αvβ5) on human cells (human) (UniProt P06756); assay: flow cytometry on M21 cells; labeled CNTO95 2 µg/mL; competitor LM609 (anti-αvβ3) 20 µg/mL; parameters: % Positive: reference not given here
[21] = biological target: αvβ3 integrin on human cells (human) (UniProt P06756); assay: cell-based or functional assay
Chain of αvβ3 integrin on human cells (human) (P06756 31-1048, chain 1 of 2): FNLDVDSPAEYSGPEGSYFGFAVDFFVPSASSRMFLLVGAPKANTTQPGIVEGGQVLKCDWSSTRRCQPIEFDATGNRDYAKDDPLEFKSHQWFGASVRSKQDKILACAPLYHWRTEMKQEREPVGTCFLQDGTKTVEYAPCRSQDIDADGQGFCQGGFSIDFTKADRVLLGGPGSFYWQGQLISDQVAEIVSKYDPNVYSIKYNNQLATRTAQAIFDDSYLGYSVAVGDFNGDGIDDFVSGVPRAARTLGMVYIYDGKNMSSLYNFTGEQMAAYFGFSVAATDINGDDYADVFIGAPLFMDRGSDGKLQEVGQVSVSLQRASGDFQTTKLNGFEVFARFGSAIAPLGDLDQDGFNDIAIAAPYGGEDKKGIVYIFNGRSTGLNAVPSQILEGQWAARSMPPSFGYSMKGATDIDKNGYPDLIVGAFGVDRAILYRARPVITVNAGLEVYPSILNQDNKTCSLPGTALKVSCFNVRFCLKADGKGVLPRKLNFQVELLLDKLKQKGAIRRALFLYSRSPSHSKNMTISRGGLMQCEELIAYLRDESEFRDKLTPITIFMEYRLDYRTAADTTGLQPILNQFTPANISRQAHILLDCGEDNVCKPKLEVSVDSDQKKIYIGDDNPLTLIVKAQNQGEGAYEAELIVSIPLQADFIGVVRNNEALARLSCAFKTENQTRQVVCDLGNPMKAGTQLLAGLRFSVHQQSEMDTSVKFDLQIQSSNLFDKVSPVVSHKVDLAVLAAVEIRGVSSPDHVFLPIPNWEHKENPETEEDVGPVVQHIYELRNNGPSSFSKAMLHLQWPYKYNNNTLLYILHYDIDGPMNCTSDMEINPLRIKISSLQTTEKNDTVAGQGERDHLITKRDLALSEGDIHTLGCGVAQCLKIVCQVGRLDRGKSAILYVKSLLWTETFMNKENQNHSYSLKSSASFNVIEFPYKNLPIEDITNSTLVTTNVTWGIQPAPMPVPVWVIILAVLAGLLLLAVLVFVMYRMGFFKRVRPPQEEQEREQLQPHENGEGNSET
Chain of αvβ3 integrin on human cells (human) (P05106 27-788, chain 2 of 2, further chain): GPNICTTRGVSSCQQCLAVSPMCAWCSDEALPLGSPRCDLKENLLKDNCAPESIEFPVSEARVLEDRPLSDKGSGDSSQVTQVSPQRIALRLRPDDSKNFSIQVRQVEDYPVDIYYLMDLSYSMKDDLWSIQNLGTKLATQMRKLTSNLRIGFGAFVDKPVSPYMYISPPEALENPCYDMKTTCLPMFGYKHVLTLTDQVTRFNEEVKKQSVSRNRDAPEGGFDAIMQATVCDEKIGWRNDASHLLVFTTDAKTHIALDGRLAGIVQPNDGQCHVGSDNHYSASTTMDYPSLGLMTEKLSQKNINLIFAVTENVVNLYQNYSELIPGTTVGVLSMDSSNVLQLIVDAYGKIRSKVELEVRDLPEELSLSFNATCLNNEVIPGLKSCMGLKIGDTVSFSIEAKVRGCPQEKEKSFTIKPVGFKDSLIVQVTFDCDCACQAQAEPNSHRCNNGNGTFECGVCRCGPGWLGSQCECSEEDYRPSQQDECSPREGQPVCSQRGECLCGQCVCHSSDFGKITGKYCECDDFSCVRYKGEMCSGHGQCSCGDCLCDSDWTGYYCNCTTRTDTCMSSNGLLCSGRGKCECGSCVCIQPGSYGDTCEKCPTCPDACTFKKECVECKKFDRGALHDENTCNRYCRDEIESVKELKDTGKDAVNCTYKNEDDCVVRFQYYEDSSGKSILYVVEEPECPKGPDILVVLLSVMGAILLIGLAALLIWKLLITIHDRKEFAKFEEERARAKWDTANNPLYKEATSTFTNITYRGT

[22] = biological target: αvβ3 integrin on human cells (human) (UniProt P06756); assay: radiolabeled antibody binding on A375S2 cells (n = 2)
[23] = biological target: αvβ5 integrin on human cells (human) (UniProt P06756); assay: radiolabeled antibody binding on HT-29 cells (n = 1)
Chain of αvβ5 integrin on human cells (human) (P06756 31-1048, chain 1 of 2): as the sequence (P06756 31-1048, chain 1 of 2) above
Chain of αvβ5 integrin on human cells (human) (P18084 24-799, chain 2 of 2, further chain): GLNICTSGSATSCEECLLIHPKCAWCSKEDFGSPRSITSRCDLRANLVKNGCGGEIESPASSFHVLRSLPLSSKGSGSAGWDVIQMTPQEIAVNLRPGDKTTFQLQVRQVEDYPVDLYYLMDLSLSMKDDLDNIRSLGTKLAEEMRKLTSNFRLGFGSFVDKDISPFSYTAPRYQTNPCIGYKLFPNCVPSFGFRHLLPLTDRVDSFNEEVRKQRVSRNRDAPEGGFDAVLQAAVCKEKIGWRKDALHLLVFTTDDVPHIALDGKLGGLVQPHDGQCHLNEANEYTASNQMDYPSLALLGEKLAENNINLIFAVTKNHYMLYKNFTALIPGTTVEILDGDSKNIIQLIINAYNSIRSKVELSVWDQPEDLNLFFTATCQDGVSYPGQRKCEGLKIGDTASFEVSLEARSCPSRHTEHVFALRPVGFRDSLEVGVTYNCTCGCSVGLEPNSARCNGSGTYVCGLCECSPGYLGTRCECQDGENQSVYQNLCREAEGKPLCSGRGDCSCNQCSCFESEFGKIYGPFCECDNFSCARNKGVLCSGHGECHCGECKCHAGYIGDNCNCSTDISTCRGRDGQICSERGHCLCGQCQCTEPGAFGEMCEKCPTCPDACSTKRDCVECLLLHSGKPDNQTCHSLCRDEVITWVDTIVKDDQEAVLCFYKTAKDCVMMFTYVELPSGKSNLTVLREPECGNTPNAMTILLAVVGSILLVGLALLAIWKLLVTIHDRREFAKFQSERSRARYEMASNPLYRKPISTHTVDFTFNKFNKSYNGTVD

[24] = biological target: αvβ5 integrin on human cells (human) (UniProt P06756); assay: cell-based or functional assay
[25] = biological target: αvβ5 integrin on human cells (human) (UniProt P06756); assay: radiolabeled antibody binding on M21 cells (n = 2)
[26] = biological target: αvβ5 integrin on human cells (human) (UniProt P06756); assay: radiolabeled antibody binding on A375S2 cells (n = 4)

Kd [1]: 7 nM
Receptors per cell (receptors/cell) [2]: 120000
% Positive [3]: 100%
MCF (Median Channel Fluorescence) [3]: 14.3
Kd [4]: 5.2 nM
A375S.2 cell adhesion to fibrin, % of no-antibody control (10 µg/ml) [5]: 43.3%
A375S.2 cell adhesion to fibrinogen, % of no-antibody control (10 µg/ml) [5]: 11.4%
A375S.2 cell adhesion to fibronectin, % of no-antibody control (10 µg/ml) [5]: 103%
A375S.2 cell adhesion to gelatin, % of no-antibody control (10 µg/ml) [5]: 23.2%
A375S.2 cell adhesion to type I collagen, % of no-antibody control (10 µg/ml) [5]: 104%
A375S.2 cell adhesion to vitronectin, % of no-antibody control (10 µg/ml) [5]: 1.4%
HUVEC adhesion to fibrin, % of no-antibody control (10 µg/ml) [5]: 45.1%
HUVEC adhesion to fibrinogen, % of no-antibody control (10 µg/ml) [5]: 34.5%
HUVEC adhesion to fibronectin, % of no-antibody control (10 µg/ml) [5]: 102%
HUVEC adhesion to gelatin, % of no-antibody control (10 µg/ml) [5]: 54.8%
HUVEC adhesion to type I collagen, % of no-antibody control (10 µg/ml) [5]: 97.7%
HUVEC adhesion to vitronectin, % of no-antibody control (10 µg/ml) [5]: 3.3%
% Positive [6]: 132%
MCF (Median Channel Fluorescence) [6]: 5.73
% Positive [7]: 91%
MCF (Median Channel Fluorescence) [7]: 13.1
% Positive [8]: 106%
MCF (Median Channel Fluorescence) [8]: 4.61
% Positive [9]: 91%
MCF (Median Channel Fluorescence) [9]: 13.1
% Positive [10]: 104%
MCF (Median Channel Fluorescence) [10]: 14.9
Kd [11]: 8.5 nM
% Positive [12]: 112%
MCF (Median Channel Fluorescence) [12]: 4.87
% Positive [13]: 101%
MCF (Median Channel Fluorescence) [13]: 14.5
% Positive [14]: 100%
MCF (Median Channel Fluorescence) [14]: 4.33
% Positive [15]: 106%
MCF (Median Channel Fluorescence) [15]: 4.61
% Positive [16]: 103%
MCF (Median Channel Fluorescence) [16]: 14.7
% Positive [17]: 125%
MCF (Median Channel Fluorescence) [17]: 5.42
Receptors per cell (receptors/cell) [18]: 200000
% Positive [19]: 93%
MCF (Median Channel Fluorescence) [19]: 13.3
% Positive [20]: 110%
MCF (Median Channel Fluorescence) [20]: 4.78
Substance: CNTO 95 (antibody)

A375S.2 cell adhesion to fibrin, % of no-antibody control (10 µg/ml) [5]: 99.5%
A375S.2 cell adhesion to fibrinogen, % of no-antibody control (10 µg/ml) [5]: 102%
A375S.2 cell adhesion to fibronectin, % of no-antibody control (10 µg/ml) [5]: 100%
A375S.2 cell adhesion to gelatin, % of no-antibody control (10 µg/ml) [5]: 94.6%
A375S.2 cell adhesion to type I collagen, % of no-antibody control (10 µg/ml) [5]: 99.1%
A375S.2 cell adhesion to vitronectin, % of no-antibody control (10 µg/ml) [5]: 104%
HUVEC adhesion to fibrin, % of no-antibody control (10 µg/ml) [5]: 99.7%
HUVEC adhesion to fibrinogen, % of no-antibody control (10 µg/ml) [5]: 108%
HUVEC adhesion to fibronectin, % of no-antibody control (10 µg/ml) [5]: 96.8%
HUVEC adhesion to gelatin, % of no-antibody control (10 µg/ml) [5]: 109%
HUVEC adhesion to type I collagen, % of no-antibody control (10 µg/ml) [5]: 99.3%
HUVEC adhesion to vitronectin, % of no-antibody control (10 µg/ml) [5]: 96.3%
Substance: Human IgG (negative control) (antibody)

A375S.2 cell adhesion to fibrin, % of no-antibody control (10 µg/ml) [21]: 50%
A375S.2 cell adhesion to fibrinogen, % of no-antibody control (10 µg/ml) [21]: 14%
A375S.2 cell adhesion to fibronectin, % of no-antibody control (10 µg/ml) [21]: 104%
A375S.2 cell adhesion to gelatin, % of no-antibody control (10 µg/ml) [21]: 25.2%
A375S.2 cell adhesion to type I collagen, % of no-antibody control (10 µg/ml) [21]: 100%
A375S.2 cell adhesion to vitronectin, % of no-antibody control (10 µg/ml) [21]: 42.1%
HUVEC adhesion to fibrin, % of no-antibody control (10 µg/ml) [21]: 48.1%
HUVEC adhesion to fibrinogen, % of no-antibody control (10 µg/ml) [21]: 14.3%
HUVEC adhesion to fibronectin, % of no-antibody control (10 µg/ml) [21]: 103%
HUVEC adhesion to gelatin, % of no-antibody control (10 µg/ml) [21]: 36.5%
HUVEC adhesion to type I collagen, % of no-antibody control (10 µg/ml) [21]: 109%
HUVEC adhesion to vitronectin, % of no-antibody control (10 µg/ml) [21]: 26.3%
Receptors per cell (receptors/cell) [22]: 300000
Substance: LM609 (murine anti-human αvβ3 antibody, Chemicon)

Receptors per cell (receptors/cell) [23]: 73000
A375S.2 cell adhesion to fibrin, % of no-antibody control (10 µg/ml) [24]: 92.9%
A375S.2 cell adhesion to fibrinogen, % of no-antibody control (10 µg/ml) [24]: 99.4%
A375S.2 cell adhesion to fibronectin, % of no-antibody control (10 µg/ml) [24]: 101%
A375S.2 cell adhesion to gelatin, % of no-antibody control (10 µg/ml) [24]: 87.4%
A375S.2 cell adhesion to type I collagen, % of no-antibody control (10 µg/ml) [24]: 101%
A375S.2 cell adhesion to vitronectin, % of no-antibody control (10 µg/ml) [24]: 28.5%
HUVEC adhesion to fibrin, % of no-antibody control (10 µg/ml) [24]: 96.7%
HUVEC adhesion to fibrinogen, % of no-antibody control (10 µg/ml) [24]: 94.5%
HUVEC adhesion to fibronectin, % of no-antibody control (10 µg/ml) [24]: 103%
HUVEC adhesion to gelatin, % of no-antibody control (10 µg/ml) [24]: 94.4%
HUVEC adhesion to type I collagen, % of no-antibody control (10 µg/ml) [24]: 116%
HUVEC adhesion to vitronectin, % of no-antibody control (10 µg/ml) [24]: 39.8%
Receptors per cell (receptors/cell) [25]: 44000
Receptors per cell (receptors/cell) [26]: 70000
Substance: P1F6 (murine anti-human αvβ5 antibody)
